{"source": "patent US9416162B2", "about": "“Peptides having reduced toxicity that stimulate cholesterol efflux” (The Regents of the University of California, priority 2013, dated 2016)", "key": {"cynomolgus monkeys": {"tested_on": "cynomolgus monkeys", "assay": "IV infusion toxicity in cynomolgus monkeys (ALT, AST, CPK, bilirubin)", "type": "in vivo, cynomolgus monkey", "experimental": "Male (upper panel) and female lower panel) cynomolgus monkeys were administered ATI-5261 at a fixed dose of 100 mg/kg by IV infusion (60 min) every 96 hours for a total of 4 injections. Blood was collected 24 h post infusion and levels of plasma ALT, AST, creatine kinase (CPK), and total and indirect bilirubin were determined Values are expressed as a fold-increase vs. pre-dose levels."}, "apoE−/− mice": {"tested_on": "apoE−/− mice", "assay": "Macrophage reverse cholesterol transport (RCT) to feces in vivo", "design": "species or system mouse", "conditions": "male apoE−/− mice, IP lipid-free peptide 10 or 30 mg/kg", "experimental": "J774 macrophage foam-cells (acetylated LDL, 100 μg/ml) labeled with [^3H]cholesterol were injected IP into male, atherosclerotic apoE deficient (apoE^−/−) mice 5 months of age together with vehicle alone (PBS) or with lipid-free CS6253 peptide at doses of 10 or 30 mg/kg. Feces were collected at 24 h for assessment of [^3H]sterol. Values are means±SD, n=5 mice per group."}, "SR-B1": {"biological_target": "T1, SR-B1 (Rattus norvegicus, UniProt P97943)", "T1 construct": "endogenous in cells; host or cells: Fu5AH cells", "T1 sequence (P97943 1-509)": "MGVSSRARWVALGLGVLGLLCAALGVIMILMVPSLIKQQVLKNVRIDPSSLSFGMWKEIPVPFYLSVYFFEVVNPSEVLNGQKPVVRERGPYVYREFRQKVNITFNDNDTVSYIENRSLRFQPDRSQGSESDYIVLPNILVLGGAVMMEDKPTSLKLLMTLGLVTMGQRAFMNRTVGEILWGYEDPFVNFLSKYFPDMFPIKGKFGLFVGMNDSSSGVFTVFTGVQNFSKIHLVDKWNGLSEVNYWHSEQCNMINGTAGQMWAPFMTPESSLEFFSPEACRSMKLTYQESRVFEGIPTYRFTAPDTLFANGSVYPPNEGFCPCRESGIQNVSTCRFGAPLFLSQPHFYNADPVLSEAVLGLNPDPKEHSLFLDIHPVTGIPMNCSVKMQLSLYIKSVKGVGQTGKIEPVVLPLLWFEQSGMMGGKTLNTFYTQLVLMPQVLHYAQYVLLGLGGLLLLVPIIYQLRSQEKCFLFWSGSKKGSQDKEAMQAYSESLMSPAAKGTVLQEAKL", "assay": "SR-B1 mediated cholesterol efflux from Fu5AH cells", "type": "cell-based", "conditions": "50 μg peptide/ml serum-free medium", "experimental": "To further evaluate potential anti-atherogenic mechanisms of CS6253, Fu5AH cells labeled with [3H]cholesterol were used in efflux experiments. The citrulline form of LeuATI-5261 (CS6253) lipidated with POPC was used as a cholesterol efflux acceptor at 50 μg peptide/ml serum-free medium. Panel A-Time-course for SR-B1 mediated cholesterol efflux from cells. […] Panel B—Comparison between CS6253 and ATI-5261 in mediating cellular cholesterol efflux via SRB1. [3H]cholesterol labeled Fu5AH cells were incubated with either lipid-free acceptors or acceptors formulated with POPC."}, "ABCA1": {"biological_target": "T2, ABCA1 (Mus musculus, UniProt P41233)", "T2 construct": "treated (18 h) with a cAMP analog to induce ABCA1 protein expression; endogenous in cells; host or cells: J774 macrophages", "T2 sequence (P41233 whole entry)": "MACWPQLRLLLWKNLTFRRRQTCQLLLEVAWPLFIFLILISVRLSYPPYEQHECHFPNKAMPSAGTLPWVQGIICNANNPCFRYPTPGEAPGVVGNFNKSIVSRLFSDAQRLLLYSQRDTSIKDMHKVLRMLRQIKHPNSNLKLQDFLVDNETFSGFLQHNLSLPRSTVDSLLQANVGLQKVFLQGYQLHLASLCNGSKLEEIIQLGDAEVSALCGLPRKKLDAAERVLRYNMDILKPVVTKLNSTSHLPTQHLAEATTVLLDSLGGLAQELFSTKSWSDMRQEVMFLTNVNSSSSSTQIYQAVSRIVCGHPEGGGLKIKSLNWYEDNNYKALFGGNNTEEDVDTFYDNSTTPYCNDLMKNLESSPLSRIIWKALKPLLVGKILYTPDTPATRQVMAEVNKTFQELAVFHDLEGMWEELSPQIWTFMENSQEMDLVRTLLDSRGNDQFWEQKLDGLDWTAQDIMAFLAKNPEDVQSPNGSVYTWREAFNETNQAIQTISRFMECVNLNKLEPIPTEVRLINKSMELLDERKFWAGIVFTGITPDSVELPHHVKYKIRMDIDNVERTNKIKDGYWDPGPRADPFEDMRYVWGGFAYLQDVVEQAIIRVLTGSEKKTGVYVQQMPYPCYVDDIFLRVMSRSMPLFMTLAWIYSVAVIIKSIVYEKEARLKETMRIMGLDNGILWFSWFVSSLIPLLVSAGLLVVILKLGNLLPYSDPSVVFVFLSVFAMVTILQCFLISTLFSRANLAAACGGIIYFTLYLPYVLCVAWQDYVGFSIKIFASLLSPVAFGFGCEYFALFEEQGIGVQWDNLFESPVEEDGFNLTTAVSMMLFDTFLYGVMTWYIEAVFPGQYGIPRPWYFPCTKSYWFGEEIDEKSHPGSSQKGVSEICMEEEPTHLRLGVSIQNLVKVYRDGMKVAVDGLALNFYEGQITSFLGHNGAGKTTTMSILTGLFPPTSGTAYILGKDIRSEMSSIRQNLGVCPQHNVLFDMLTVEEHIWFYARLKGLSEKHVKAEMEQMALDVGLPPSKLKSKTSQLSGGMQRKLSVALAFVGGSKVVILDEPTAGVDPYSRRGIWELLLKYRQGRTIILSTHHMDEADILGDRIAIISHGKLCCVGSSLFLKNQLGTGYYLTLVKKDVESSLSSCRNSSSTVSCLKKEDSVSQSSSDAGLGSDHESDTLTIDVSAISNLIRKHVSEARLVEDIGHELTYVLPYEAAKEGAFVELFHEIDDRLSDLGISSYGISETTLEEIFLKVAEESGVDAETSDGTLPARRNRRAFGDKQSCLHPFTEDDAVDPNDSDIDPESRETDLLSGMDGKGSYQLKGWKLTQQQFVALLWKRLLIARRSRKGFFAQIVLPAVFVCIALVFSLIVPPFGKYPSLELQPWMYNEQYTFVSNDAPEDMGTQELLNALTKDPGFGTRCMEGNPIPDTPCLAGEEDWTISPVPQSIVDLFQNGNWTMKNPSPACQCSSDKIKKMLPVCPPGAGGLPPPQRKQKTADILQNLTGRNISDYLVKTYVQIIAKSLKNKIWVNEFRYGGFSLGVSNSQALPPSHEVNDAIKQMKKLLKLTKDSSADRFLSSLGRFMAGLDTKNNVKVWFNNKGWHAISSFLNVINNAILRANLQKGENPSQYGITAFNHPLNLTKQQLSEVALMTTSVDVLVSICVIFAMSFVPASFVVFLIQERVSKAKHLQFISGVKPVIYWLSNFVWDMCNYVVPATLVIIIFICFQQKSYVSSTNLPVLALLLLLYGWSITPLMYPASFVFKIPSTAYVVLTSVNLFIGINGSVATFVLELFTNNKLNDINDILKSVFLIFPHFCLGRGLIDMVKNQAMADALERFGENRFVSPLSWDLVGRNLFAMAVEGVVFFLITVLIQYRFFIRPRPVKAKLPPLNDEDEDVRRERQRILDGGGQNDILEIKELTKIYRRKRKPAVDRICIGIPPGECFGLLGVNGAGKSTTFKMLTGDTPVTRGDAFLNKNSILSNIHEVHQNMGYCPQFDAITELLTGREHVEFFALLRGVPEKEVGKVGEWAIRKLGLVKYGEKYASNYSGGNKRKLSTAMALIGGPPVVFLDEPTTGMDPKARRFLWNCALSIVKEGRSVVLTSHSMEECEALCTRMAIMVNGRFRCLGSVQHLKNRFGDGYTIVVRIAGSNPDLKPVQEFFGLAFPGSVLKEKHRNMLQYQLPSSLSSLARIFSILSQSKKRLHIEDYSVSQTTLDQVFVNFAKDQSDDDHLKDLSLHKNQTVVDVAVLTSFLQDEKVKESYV", "assay": "ABCA1 protein stabilization, western blot of J774 whole-cell lysates", "type": "cell-based", "conditions": "J774 cells after cAMP treatment, continued presence of peptide", "experimental": "In some embodiments, the stabilization of ABCA is measured by direct measurement of ABCA (e.g., ABCA protein, or nucleic acid) using a cell based assay. Cell based assays can be performed in any cells in which ABCA is expressed (e.g., J774 macrophages), including cells which have been transfected with ABCA (e.g. HeLa cells). Any cell type can be used. For example, J774 macrophages can be used to assess relative ABCA1 protein levels in the presence and absence of polypeptides of the invention. The cells are first contacted with a compound that will induce ABCA (e.g., cAMP or a cAMP analogue such as, 8-bromo-cAMP) to upregulate ABCA (e.g., ABCA1) expression, then exposed to […] polypeptides of the invention in the absence of the cAMP stimulus to evaluate whether ABCA1 protein was stabilized or degraded. Relative levels of ABCA1 protein can be assessed using any means known in the art including, e.g., immunoblot analysis of cell membranes (Oram et al., J. Biol. Chem., 278:52379-52385 (2003)) or hybridization of nucleic acid probes to ABCA mRNA.\nJ774 macrophages were used for experiments. Panel A—Cells were labeled (48 h) with 3H cholesterol and treated with (right bars) and without (left bars) a cAMP analog to modulate ABCA1 expression. […]"}}, "note": "Non-standard residues stand in square brackets, D forms with d. No end group written: not given here. Cit = NC(=O)NCCC[C@H](N)C(=O)O"}
{"substance": "ATI-5261: HDL mimetic peptide, parent peptide; triglyceride elevating and muscle toxic peptide used as positive control (EVRSKLEEWFAAFREFAEEFLARLKS) [reference compound]", "values": [{"measurement": "cytotoxic response (ALT, AST, CPK, bilirubin)", "setting": "cynomolgus monkeys; 100 mg/kg IV infusion (60 min) every 96 hours, 4 injections, blood 24 h post infusion", "result": "induced a cytotoxic response"}, {"measurement": "plasma creatine kinase (CPK), fold-increase vs. pre-dose levels", "setting": "cynomolgus monkeys; 100 mg/kg IV infusion, after the first infusion, male and female monkeys", "result": "marked increase"}]}
{"substance": "EVCitSKLEEWLAALCitELAEELLARLKS (SEQ ID NO:2) (EV[Cit]SKLEEWLAAL[Cit]ELAEELLARLKS) [CS6253, citrulline form of LeuATI-5261, R3,14→Citrulline, 26-mer]", "values": [{"measurement": "macrophage RCT, [3H]sterol in feces at 24 h", "setting": "apoE−/− mice", "result": "stimulated macrophage RCT"}, {"measurement": "SR-B1 mediated cholesterol efflux", "setting": "SR-B1", "result": "relatively poor activity"}, {"measurement": "ABCA1 protein levels (stabilization)", "setting": "ABCA1", "result": "maintained at high levels"}]}
